In FireProtDB (doi:10.1021/bi061295h):

Details: Equus caballus, pH 7.4, 25 °C, GdnHCl, reversible: Yes

Cytochrome c wild type, P00004, sequence (P00004 whole entry): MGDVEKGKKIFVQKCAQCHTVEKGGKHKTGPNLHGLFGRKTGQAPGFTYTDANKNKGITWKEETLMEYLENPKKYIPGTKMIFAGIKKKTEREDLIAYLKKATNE

Work on Cytochrome c wild type, P00004 yielded a denaturant m value (CD, Tris 20 mM) of 2.8 kcal/mol/M, an unfolding free energy (CD, Tris 20 mM) of 7.4 kcal/mol and a denaturant m value (SUPREX, Sodium phosphate 20 mM) of 3 kcal/mol/M.
